Patent publication US20240252667A1 (ARMAGEN, published 2024)
“And” between values parts separate entries of the source, which are not always exact repeats. Equal values may be shown once. Blank lines part the entries; values can stand above or below the binder they belong to.

Columns and labels:
[1] = molecular target: T1, human insulin receptor extracellular domain (HIR ECD) (human, UniProt P06213 28-956, limits assumed); test: ELISA, HIR ECD plated; CHO-derived protein
T1 construct: extracellular domain; Plated on 96-well dishes in the ELISA
Description: The estimated MW of the hetero-tetrameric HIRMAb-HEXA fusion protein shown in FIG. 2 is 318 kDa, based on migration in the SDS-PAGE of the Western blot. The affinity of the fusion protein for the HIR extracellular domain (ECD) was determined with an ELISA. CHO cells permanently transfected with the HIR ECD were grown in serum free media (SFM), and the HIR ECD was purified with a wheat germ agglutinin affinity column, as previously described in Coloma et al. (2000) Pharm Res, 17:266-274. The HIR ECD was plated on Nunc-Maxisorb 96 well dishes and the binding of the HIR Ab, or the HIR Ab-HEXA fusion protein, to the HIR ECD was detected with a secondary antibody, followed by binding with an alkaline phosphatase detector reagent. […] The MW of the HIR Ab is 150 kDa, and the MW of the HIR Ab-fusion protein is 318 kDa.
The CHO line producing the HIR Ab-HEXA fusion protein was generated from CHO cells following 2 rounds of DC as described above. The accession cell line was propagated in a 2L shake flask in SFM on an orbital shaker and the CHO-derived fusion protein was purified by protein A affinity chromatography. […] The potency of the CHO-derived fusion protein as assessed with the HIR ECD binding ELISA, as described above.

[2] = molecular target: T1, human insulin receptor extracellular …; test: ELISA, HIR ECD plated, secondary antibody and alkaline phosphatase detection; COS-derived protein
Description: (§1) The COS-derived HIR Ab-HEXA fusion protein (also designated HIRMAb-HEXA), following purification with protein A affinity chromatography, was assessed for purity by reducing sodium dodecysulfate polyacrylamide gel electrophoresis (SDS-PAGE) as shown in FIG. 10. Only the HC and LC proteins are detected for either the HIRMAb alone or the HIRMAb-HEXA fusion protein. For the HIRMAb alone the higher molecular weight (MW) band is the HC and the lower MW band is the LC. For the HIRMAb-HEXA fusion protein, the higher MW band is the […]. The identity of the fusion protein was verified by Western blotting using primary antibodies to either human IgG (FIG. 11, left panel) or human HEXA (FIG. 11, right panel). The molecular weight (MW) of the HIRMAb-HEXA heavy and light chains are estimated by linear regression based on the migration of the MW standards. […] The affinity of the fusion protein for the HIR extracellular domain (ECD) was determined with an ELISA. […] The HIR ECD was plated on Nunc-Maxisorb 96 well dishes and the binding of the HIR Ab, or the HIR Ab-HEXA fusion protein, to the HIR ECD was detected with a secondary antibody, followed by binding with an alkaline phosphatase detector reagent. […]

[3] = molecular target: T1, human insulin receptor extracellular …; test: ELISA, HIR ECD plated; COS-derived protein; normalised with MW 318 kDa
Description: as §1

[4] = molecular target: T1, human insulin receptor extracellular …; test: ELISA, recombinant HIR ECD plated; CHO-derived protein; normalised with MW 320 kDa
Description: (§2) The affinity of the fusion protein for the HIR extracellular domain (ECD) was determined with an ELISA. Recombinant HIR ECD was plated on Nunc-Maxisorb 96 well dishes and the binding of the HIR Ab, or the HIR Ab-ASM fusion protein, to the HIR ECD was detected with a secondary antibody, followed by binding with an alkaline phosphatase detector reagent. […] The MW of the HIR Ab is 150 kDa, and the MW of the HIR Ab-fusion protein is 320 kDa.

[5] = molecular target: T1, human insulin receptor extracellular …; test: ELISA, recombinant HIR ECD plated, secondary antibody and alkaline phosphatase detection; CHO-derived protein
Description: as §2
as §2, with “The potency of the CHO-derived fusion protein was assessed with the HIR ECD binding ELISA. The affinity” for “The affinity”, “the HIR Ab-PPT1 fusion protein,” for “the HIR Ab-ASM fusion protein,”, “protein is 246 kDa.” for “protein is 320 kDa.”

[6] = molecular target: T1, human insulin receptor extracellular …; test: ELISA, HIR ECD plated; normalised with MW 150 kDa
Description: as §1

[7] = molecular target: T1, human insulin receptor extracellular …; test: ELISA, recombinant HIR ECD plated, secondary antibody and alkaline phosphatase detection
Description: as §2, with “The potency of the CHO-derived fusion protein was assessed with the HIR ECD binding ELISA. The affinity” for “The affinity”, “the HIR Ab-PPT1 fusion protein,” for “the HIR Ab-ASM fusion protein,”, “protein is 246 kDa.” for “protein is 320 kDa.”

[8] = molecular target: T1, human insulin receptor extracellular …; test: ELISA, HIR ECD plated (HIR receptor assay)
[9] = molecular target: T1, human insulin receptor extracellular …; test: ELISA, HIR ECD plated, biotinylated goat anti-human IgG detection
[10] = molecular target: T1, human insulin receptor extracellular …; test: ELISA, HIR ECD plated, secondary antibody and alkaline phosphatase detection
Description: as §1

[11] = molecular target: T1, human insulin receptor extracellular …; test: ELISA, recombinant HIR ECD plated; normalised with MW 150 kDa
Description: as §2, with “The potency of the CHO-derived fusion protein was assessed with the HIR ECD binding ELISA. The affinity” for “The affinity”, “the HIR Ab-PPT1 fusion protein,” for “the HIR Ab-ASM fusion protein,”, “protein is 246 kDa.” for “protein is 320 kDa.”

[12] = molecular target: T1, human insulin receptor extracellular …; test: ELISA, recombinant HIR ECD plated, secondary antibody and alkaline phosphatase detection; CHO-derived HIR Ab
Description: as §2

[13] = molecular target: T1, human insulin receptor extracellular …; test: ELISA, recombinant HIR ECD plated; CHO-derived protein; normalised with MW 246 kDa
Description: as §2, with “The potency of the CHO-derived fusion protein was assessed with the HIR ECD binding ELISA. The affinity” for “The affinity”, “the HIR Ab-PPT1 fusion protein,” for “the HIR Ab-ASM fusion protein,”, “protein is 246 kDa.” for “protein is 320 kDa.”

EC50 [1]: 0.122 µg/mL
EC50 [2]: 0.112 µg/mL
EC50 [3]: 350 pM
B1: HIR Ab-HEXA fusion protein (antibody, human IgG1, human IgG3, kappa)
heavy: not shown
light: DIQMTQSPSSLSASLGERVSLTCRASQDIGGNLYWLQQGPDGTIKRLIYATSSLDSGVPKRFSGSRSGSDYSLTISSLESEDFVDYYCLQYSSSPWTFGGGTKMEIKRTVAAPSVFIFPPSDEQLKSGTASVVCLLNNFYPREAKVQWKVDNALQSGNSQESVTEQDSKDSTYSLSSTLTLSKADYEKHKVYACEVTHQGLSSPVTKSFNRGECSSSELKTPLGDTTHTSPRSPAPEFLGGPSSSLWPWPQNFQTSDQRYVLYPNNFQFQYDVSSAAQPGCSVLDEAFQRYRDLLFGSGSWPRPYLTGKRHTLEKNVLVVSVVTPGCNQLPTLESVENYTLTINDDQCLLLSETVWGALRGLETFSQLVWKSAEGTFFINKTEIEDFPRFPHRGLLLDTSRHYLPLSSILDTLDVMAYNKLNVFHWHLVDDPSFPYESFTFPELMRKGSYNPVTHIYTAQDVKEVIEYARLRGIRVLAEFDTPGHTLSWGPGIPGLLTPCYSGSEPSGTFGPVNPSLNNTYEFMSTFFLEVSSVFPDFYLHLGGDEVDFTCWKSNPEIQDFMRKKGFGEDFKQLESFYIQTLLDIVSSYGKGYVVWQEVFDNKVKIQPDTIIQVWREDIPVNYMKELELVTKAGFRALLSAPWYLNRISYGPDWKDFYIVEPLAFEGTPEQKALVIGGEACMWGEYVDNTNLVPRLWPRAGAVAERLWSNKLTSDLTFAYERLSHFRCELLRRGVQAQPLNVGFCEQEFEQT
notes: also called HIRMAb-HEXA; HIR Ab LC-HEXA + HIR Ab HC

EC50 [4]: 930 pM
EC50 [5]: 0.299 µg/mL
B2: HIR Ab-ASM fusion protein (antibody, human IgG1, human IgG3, kappa)
heavy: not shown
light: DIQMTQSPSSLSASLGERVSLTCRASQDIGGNLYWLQQGPDGTIKRLIYATSSLDSGVPKRFSGSRSGSDYSLTISSLESEDFVDYYCLQYSSSPWTFGGGTKMEIKRTVAAPSVFIFPPSDEQLKSGTASVVCLLNNFYPREAKVQWKVDNALQSGNSQESVTEQDSKDSTYSLSSTLTLSKADYEKHKVYACEVTHQGLSSPVTKSFNRGECSSSELKTPLGDTTHTSPRSPAPEFLGGPSSSHPLSPQGHPARLHRIVPRLRDVFGWGNLTCPICKGLFTAINLGLKKEPNVARVGSVAIKLCNLLKIAPPAVCQSIVHLFEDDMVEVWRRSVLSPSEACGLLLGSTCGHWDIFSSWNISLPTVPKPPPKPPSPPAPGAPVSRILFLTDLHWDHDYLEGTDPDCADPLCCRRGSGLPPASRPGAGYWGEYSKCDLPLRTLESLLSGLGPAGPFDMVYWTGDIPAHDVWHQTRQDQLRALTTVTALVRKFLGPVPVYPAVGNHESTPVNSFPPPFIEGNHSSRWLYEAMAKAWEPWLPAEALRTLRIGGFYALSPYPGLRLISLNMNFCSRENFWLLINSTDPAGQLQWLVGELQAAEDRGDKVHIIGHIPPGHCLKSWSWNYYRIVARYENTLAAQFFGHTHVDEFEVFYDEETLSRPLAVAFLAPSATTYIGLNPGYRVYQIDGNYSGSSHVVLDHETYILNLTQANIPGAIPHWQLLYRARETYGLPNTLPTAWHNLVYRMRGDMQLFQTFWFLYHKGHPPSEPCGTPCRLATLCAQLSARADSPALCRHLMPDGSLPEAQSLWPRP
notes: Hetero-tetramer, MW 320 kDa; The ELISA used CHO-derived protein; also called HIRMAb-ASM; HIR Ab LC-ASM + HIR Ab HC

EC50 [6]: 230 pM
EC50 [7]: 0.039 µg/mL
EC50 [8]: 250 pM
EC50 [9]: 770 pM
EC50 [10]: 0.034 µg/mL
EC50 [11]: 320 pM and 260 pM
EC50 [12]: 0.047 µg/mL
B3: chimeric HIR Ab (antibody to the human insulin receptor) (antibody, human IgG1, kappa)
heavy: not shown
light: DIQMTQSPSSLSASLGERVSLTCRASQDIGGNLYWLQQGPDGTIKRLIYATSSLDSGVPKRFSGSRSGSDYSLTISSLESEDFVDYYCLQYSSSPWTFGGGTKMEIKRTVAAPSVFIFPPSDEQLKSGTASVVCLLNNFYPREAKVQWKVDNALQSGNSQESVTEQDSKDSTYSLSSTLTLSKADYEKHKVYACEVTHQGLSSPVTKSFNRGEC
notes: also called HIRMAb; chimeric HIRMAb

EC50 [13]: 380 pM
EC50 [5]: 0.094 µg/mL
B4: HIR Ab-LL-PPT1 fusion protein (31-amino acid linker) (antibody, human IgG1, human IgG3, kappa)
heavy: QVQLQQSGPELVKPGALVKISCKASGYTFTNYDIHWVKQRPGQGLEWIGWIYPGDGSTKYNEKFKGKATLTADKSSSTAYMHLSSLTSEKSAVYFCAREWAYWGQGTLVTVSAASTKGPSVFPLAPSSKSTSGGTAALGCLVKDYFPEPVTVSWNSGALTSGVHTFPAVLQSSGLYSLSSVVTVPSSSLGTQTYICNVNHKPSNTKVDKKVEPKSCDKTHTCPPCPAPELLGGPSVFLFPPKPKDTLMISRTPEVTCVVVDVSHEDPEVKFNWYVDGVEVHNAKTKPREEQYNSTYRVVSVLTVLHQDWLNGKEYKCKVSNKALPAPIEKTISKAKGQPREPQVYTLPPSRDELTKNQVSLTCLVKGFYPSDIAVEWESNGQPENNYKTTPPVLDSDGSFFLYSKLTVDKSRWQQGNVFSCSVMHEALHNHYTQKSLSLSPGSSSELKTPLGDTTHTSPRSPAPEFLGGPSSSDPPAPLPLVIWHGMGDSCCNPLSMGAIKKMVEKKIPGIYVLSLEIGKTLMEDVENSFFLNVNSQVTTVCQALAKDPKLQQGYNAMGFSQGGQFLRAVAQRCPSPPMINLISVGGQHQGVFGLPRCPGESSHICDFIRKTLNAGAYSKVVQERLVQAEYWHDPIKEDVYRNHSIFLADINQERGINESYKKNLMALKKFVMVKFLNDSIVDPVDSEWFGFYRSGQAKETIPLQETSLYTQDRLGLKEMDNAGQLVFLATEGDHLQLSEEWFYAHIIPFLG
light: DIQMTQSPSSLSASLGERVSLTCRASQDIGGNLYWLQQGPDGTIKRLIYATSSLDSGVPKRFSGSRSGSDYSLTISSLESEDFVDYYCLQYSSSPWTFGGGTKMEIKRTVAAPSVFIFPPSDEQLKSGTASVVCLLNNFYPREAKVQWKVDNALQSGNSQESVTEQDSKDSTYSLSSTLTLSKADYEKHKVYACEVTHQGLSSPVTKSFNRGEC
notes: Hetero-tetramer, MW 246 kDa; The ELISA used CHO-derived protein; also called HIR Ab-PPT1; HIRMAb-PPT1
